This note sets out measurements from PMC12650317 (Biomolecules, 2025).

Assay [1] addresses T1, BVDV NS3 recombinant protein (Bovine viral diarrhea virus 1, RefSeq …).
T1 chain: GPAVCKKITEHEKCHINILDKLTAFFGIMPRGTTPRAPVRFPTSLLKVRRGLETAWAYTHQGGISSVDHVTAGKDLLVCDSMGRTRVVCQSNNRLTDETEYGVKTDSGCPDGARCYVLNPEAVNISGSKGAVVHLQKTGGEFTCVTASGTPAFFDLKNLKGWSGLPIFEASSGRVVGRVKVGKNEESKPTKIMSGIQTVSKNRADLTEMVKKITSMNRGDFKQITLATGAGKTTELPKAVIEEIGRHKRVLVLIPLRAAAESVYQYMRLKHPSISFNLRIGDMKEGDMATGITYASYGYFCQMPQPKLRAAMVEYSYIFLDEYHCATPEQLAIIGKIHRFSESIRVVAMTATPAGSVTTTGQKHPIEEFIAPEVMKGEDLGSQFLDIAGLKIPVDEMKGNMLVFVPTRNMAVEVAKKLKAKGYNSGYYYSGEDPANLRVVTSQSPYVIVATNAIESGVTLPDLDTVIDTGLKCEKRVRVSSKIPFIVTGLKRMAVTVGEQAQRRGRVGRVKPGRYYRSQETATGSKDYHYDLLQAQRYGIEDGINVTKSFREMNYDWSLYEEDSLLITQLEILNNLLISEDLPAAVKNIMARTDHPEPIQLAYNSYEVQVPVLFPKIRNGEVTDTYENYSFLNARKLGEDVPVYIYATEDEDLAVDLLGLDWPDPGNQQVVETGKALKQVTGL
In words: ELISA; indirect ELISA (i-ELISA); NS3 or NS5A coated on 96-well plates (10 ug/mL for the panning and serum ELISA); OD450 read; nanobody targeting PRRSV as negative control.

Assay [2] concerns the target BVDV NS5A recombinant protein (Bovine viral diarrhea virus 1, RefSeq …, UniProt P19711). Described as above.

Chain of BVDV NS5A recombinant protein (P19711 2774-3269): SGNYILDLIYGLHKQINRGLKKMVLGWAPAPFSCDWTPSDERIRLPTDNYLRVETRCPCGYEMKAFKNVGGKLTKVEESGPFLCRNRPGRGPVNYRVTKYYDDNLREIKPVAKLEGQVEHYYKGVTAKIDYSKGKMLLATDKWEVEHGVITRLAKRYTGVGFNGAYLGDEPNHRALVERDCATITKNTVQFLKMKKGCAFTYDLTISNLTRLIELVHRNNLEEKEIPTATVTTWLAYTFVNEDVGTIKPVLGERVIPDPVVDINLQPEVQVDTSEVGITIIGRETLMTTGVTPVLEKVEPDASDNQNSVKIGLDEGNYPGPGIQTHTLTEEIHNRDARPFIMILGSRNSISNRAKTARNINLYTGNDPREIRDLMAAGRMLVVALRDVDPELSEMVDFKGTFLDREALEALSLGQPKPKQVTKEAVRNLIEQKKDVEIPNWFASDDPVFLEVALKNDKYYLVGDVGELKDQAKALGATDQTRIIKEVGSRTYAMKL

B1: Nb22 (VHH)
VHH: QVQLQESGGGLVQPGGSLRLSCRASGYTSCMAWFRQAPKEREGVASINSDGSTAYADSVQGRFTISRDNTMNTLYLQMNSLKPEDTAMYYCAAERPSSCLPRNIWVDTNYWGQGTQVTVSS
notes: also called nanobody Nb22
For the molecule B1, in assay [1], the binding result is “binds”.

B2: Nb19 (VHH)
VHH: QVQLQESGGGLVQPGGSLRLSCAASGFTFQTYSMGWVRQAPGKGLEWVSSISGDGSTYYSDSVKGRFTISTDNANTLYLQMNSLKSEDTAVYYCAKERSPADYRNWLMPYWGKGTLVTVSS
notes: also called nanobody Nb19
Turning to B2, the binding result in assay [1] was “binds”.

B3: Nb15 (VHH)
VHH: QVQLQESGGGLVQPGGSLRLSCAASGGSLTYYCMAWFRQTPGKEREWVSCISNYGFTINYADSVKGRFSISRDNAKNTVYLAMHIPEPEDTGVYVCADLSFEHLYYCSTAQSEGSEWGQGTQVTVSS
notes: also called nanobody Nb15
Regarding B3, the binding result in assay [2] was “binds”.

B4: Nb11 (VHH)
VHH: QVQLQESGGGSVQPGGSRRLSCEGSGETLGYRRQTWFRQAPGKEREGVSCISSLDDGTYYKDSVKGRFTISRDNANKMVYLQMNSLEPEDTAIYYCAADPERSSYSGPLGSLGYSYWGQGTQVTVSS
notes: also called nanobody Nb11
For the molecule B4, the binding result in assay [2] is “binds”.

B5: Nb10 (VHH)
VHH: QVQLQESGGGLVQPGGSLRLSCAASGETARSGACGWFRQAPGKEREGVASINRYGFRTYADSVKGRFTISTDNAKNTVDLQMSNLRPEDTAAYYCAADSLTFWSAPCCSSTSPGTWGQGTQVTVSS
notes: also called nanobody Nb10
Regarding B5, the binding result in assay [2] was “binds”.
